Reference: paper doi:10.1101/2020.02.07.938530
Read-outs that look alike come from different tables or passages of the source.

Columns and labels:
[1] = biological target: 5FLAG-Scc1 (yeast (budding yeast, Saccharomyces cerevisiae)) (UniProt Q12158); experiment: co-IP
[2] = biological target: 5FLAG-Scc1 (yeast (budding yeast, Saccharomyces cerevisiae)) (UniProt Q12158); experiment: co-IP; remark: listed apart in the source

UniProt Q12158, sequence (Q12158 whole entry): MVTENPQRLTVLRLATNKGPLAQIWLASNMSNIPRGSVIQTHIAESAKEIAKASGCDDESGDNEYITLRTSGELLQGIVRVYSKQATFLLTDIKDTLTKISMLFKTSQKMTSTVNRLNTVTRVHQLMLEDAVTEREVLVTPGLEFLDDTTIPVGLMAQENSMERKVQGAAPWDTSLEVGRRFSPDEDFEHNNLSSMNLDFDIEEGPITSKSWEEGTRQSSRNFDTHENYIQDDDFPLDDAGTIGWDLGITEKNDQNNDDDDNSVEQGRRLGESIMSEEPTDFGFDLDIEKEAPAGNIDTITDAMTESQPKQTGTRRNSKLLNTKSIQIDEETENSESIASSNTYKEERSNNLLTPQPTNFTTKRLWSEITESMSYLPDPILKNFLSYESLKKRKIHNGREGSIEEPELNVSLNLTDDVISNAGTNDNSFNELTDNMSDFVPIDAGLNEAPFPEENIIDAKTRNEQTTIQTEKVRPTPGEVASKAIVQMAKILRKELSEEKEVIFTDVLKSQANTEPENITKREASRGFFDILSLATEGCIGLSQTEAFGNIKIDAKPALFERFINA

percentage of cohesin dimers [1]: 40% | percentage of cohesin dimers [2]: 20%
Substance: GFP-Scc1 (from UniProt Q12158 1-566) (natural protein)
